Measurements as given in US20120321697A1, “BPB-BASED CARGO DELIVERY SYSTEM” (GWANGJU INSTITUTE OF SCIENCE AND TECHNOLOGY, priority 2009, published 2012).
No end group written: not given here.

Assays:
fibronectin EDB [1] = molecular target: T1, fibronectin EDB (Homo sapiens, UniProt P02751); experiment: Kd (1/s)
T1 construct: After transformation of pET28b vector carrying fibronectin ED-B into BL21 cells; His-tag (N); made in house; host or cells: E. coli BL21
Excerpt: (§1) Table printed on a drawing sheet, Fig. 11b
Head of the field: Kd (1/s)
(§2) The patent's description of the figure: FIG. 11a represents purification of the GST-BPB fusion protein.
(§3) FIG. 11b represents affinity of the GST-BPB to fibronectin EDB.
(§4) First copying reader's note: The name GST-BPB is printed only in Fig. 11a on this sheet, and the description gives Fig. 11b as its affinity to fibronectin EDB; the KD head says M but the cell prints nM.
(§5) Where the first naming reader finds the target: description_of_the_figure: FIG. 11b represents affinity of the GST-BPB to fibronectin EDB.

fibronectin EDB [2] = molecular target: T1, fibronectin EDB; experiment: Ka (1/Ms)
Excerpt: as §1
Head of the field: Ka (1/Ms)
as §2, §3, §4, §5

T1 sequence (P02751 1271-1359): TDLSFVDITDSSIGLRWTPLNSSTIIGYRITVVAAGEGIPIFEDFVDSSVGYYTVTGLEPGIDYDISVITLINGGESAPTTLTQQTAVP

- Kd (fibronectin EDB [1]): 0.00347 s⁻¹
- Ka (1/Ms) (fibronectin EDB [2]): 1.22 e4 1/Ms
Substance: GST-BPB: fusion protein of glutathione S-transferase and BPB HCSSAVGSWTWENGKWTWKGIIRLEQ recognizing fibronectin EDB ({GST}-HCSSAVGSWTWENGKWTWKGIIRLEQ)
